# Ends that are not written are not given here.
# B1: Hsf1 peptide N200‐K208‐C_SSS (peptide)
# peptide: NRSSGSKRKC(fluorescein‑5‑maleimide)
# B2: Hsf1 peptide G204‐N214‐C_SSS (peptide)
# peptide: GVKRKSPSMSNC(fluorescein‑5‑maleimide)
# B3: Hsf1 peptide P223‐H235‐C (peptide)
# peptide: PKYSRQFSLEHVHC(fluorescein‑5‑maleimide)
# B4: Hsf1 peptide N74‐Q86‐C (peptide)
# peptide: NMYGFRKVVHIEQC(fluorescein‑5‑maleimide)
# Target: Human Hsc70 (HSPA8) (human, UniProt P11142 1-646)
# Experiment: FP
# Human Hsc70 (HSPA8), sequence (P11142 whole entry): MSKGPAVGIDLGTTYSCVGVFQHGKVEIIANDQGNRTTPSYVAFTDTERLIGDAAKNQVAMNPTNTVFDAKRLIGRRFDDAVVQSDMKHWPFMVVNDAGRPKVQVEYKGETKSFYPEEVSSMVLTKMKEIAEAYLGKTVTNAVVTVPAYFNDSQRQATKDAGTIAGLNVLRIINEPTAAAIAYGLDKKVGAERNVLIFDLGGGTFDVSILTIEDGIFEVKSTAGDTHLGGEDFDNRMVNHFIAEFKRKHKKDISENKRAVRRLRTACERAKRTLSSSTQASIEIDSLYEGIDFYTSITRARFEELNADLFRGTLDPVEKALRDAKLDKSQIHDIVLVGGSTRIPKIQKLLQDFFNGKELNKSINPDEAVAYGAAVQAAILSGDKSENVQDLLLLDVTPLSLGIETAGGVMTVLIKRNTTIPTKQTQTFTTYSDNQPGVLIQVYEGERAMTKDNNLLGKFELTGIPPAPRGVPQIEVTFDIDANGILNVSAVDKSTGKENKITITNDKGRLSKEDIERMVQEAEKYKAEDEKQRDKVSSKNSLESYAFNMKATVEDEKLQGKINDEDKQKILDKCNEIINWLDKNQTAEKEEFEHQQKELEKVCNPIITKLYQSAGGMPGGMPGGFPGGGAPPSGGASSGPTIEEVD
row,Kd,Binder
1,> 60 µM,B1
2,> 60 µM,B2
3,> 60 µM,B3
4,> 60 µM,B4

# — paper PMC7360973 (2020)
